The source of these data is patent US20220127355A1 (INTEGRAL MOLECULAR, published 2022).

Assay in all cases: Shotgun Mutagenesis epitope mapping; mean (range), % of wild-type Claudin 6
Test [1] deals with T1, A153S.
T1 construct: Shotgun Mutagenesis mutant; also called Claudin 6 A153S
T1 chain: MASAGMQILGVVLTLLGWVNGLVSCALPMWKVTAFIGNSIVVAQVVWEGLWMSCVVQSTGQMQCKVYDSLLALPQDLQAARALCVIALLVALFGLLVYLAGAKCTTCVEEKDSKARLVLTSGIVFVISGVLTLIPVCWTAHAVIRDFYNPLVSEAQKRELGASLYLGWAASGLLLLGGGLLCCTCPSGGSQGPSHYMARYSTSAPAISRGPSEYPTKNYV

Test [2] concerns the target T2, Q78A.
T2 construct: Shotgun Mutagenesis mutant; also called Claudin 6 Q78A
T2 chain: T1 chain with Q78A, S153A

Test [3] concerns the target T3, N38A.
T3 construct: Shotgun Mutagenesis mutant; also called Claudin 6 N38A
T3 chain: T1 chain with N38A, S153A

Test [4] deals with T4, P74A.
T4 construct: Shotgun Mutagenesis mutant; also called Claudin 6 P74A
T4 chain: T1 chain with P74A, S153A

Test [5] addresses T5, V152A.
T5 construct: Shotgun Mutagenesis mutant; also called Claudin 6 V152A
T5 chain: T1 chain with V152A, S153A

The target in test [6] is T6, E154A.
T6 construct: Shotgun Mutagenesis mutant; also called Claudin 6 E154A
T6 chain: T1 chain with S153A, E154A

Test [7] addresses T7, E48A.
T7 construct: Shotgun Mutagenesis mutant; also called Claudin 6 E48A
T7 chain: T1 chain with E48A, S153A

Test [8] concerns the target T8, V45A.
T8 construct: Shotgun Mutagenesis mutant; also called Claudin 6 V45A
T8 chain: T1 chain with V45A, S153A

The target in test [9] is T9, D76A.
T9 construct: Shotgun Mutagenesis mutant; also called Claudin 6 D76A
T9 chain: T1 chain with D76A, S153A

Test [10] addresses T10, D68A.
T10 construct: Shotgun Mutagenesis mutant; also called Claudin 6 D68A
T10 chain: T1 chain with D68A, S153A

Positions count from the first letter of the chain named.

B1: IM173 (antibody, V domains shown)
VH: AVTLDESGGGLQTPGGALSLVCKASGFTFSSYSMFWVRRAPGKGLEWVAGIDSGSTTFYGSAVKGRATISRDNGQSTVRLQLNNLRAEDTATYYCAKDAYGYCGWSGCSADSIDAWGHGTEVIVSS
VL: ALTQPSSVSANPGGTVEITCSGGNNYYGWYQQKSPGSAPVTVIYYNDKRPSDIPSRFSGSKSGSTGTLTITGVQADDEAVYFCGGWDSSGGIFGAGTTLTVL
notes: Detected with anti-human IgG Fc secondary
As to B1, the “Binding Reactivity (% WT)” value turned out to be 113 % WT in test [1]; 144 % WT in [2]; 86 % WT in test [3]; 147 % WT in test [4]; 58.2 % WT in test [5]; 134 % WT in [6]. The “Binding Reactivity (% WT)” value is -0.5 % WT in test [7], 76.1 % WT in test [8], 76.8 % WT in test [9] and 89.6 % WT in test [10].

B2: IM171 (antibody, V domains shown)
VH: AVTLDESGGGLQTPGGALSLVCKASGFDFSSYAMNWVRQAPGKGLEWVAGIGSTGSSTGYGPAVKGRATISRDNGQSTLRLQLNNLRAEDTAIYYCAKSVGNGNSWSGYIATSIDAWGHGTEVIVSS
VL: ALTQPSSVSANLGGTVKLTCSGGSSGYGWYQQKSPGSAPVTVIYSNDKRPSDIPSRFSGSLSGSTGTLTITGVQADDEAVYFCGSTDNSYVGIFGAGTTLTVL
notes: Detected with anti-human IgG Fc secondary; also called LM171
With B2, the “Binding Reactivity (% WT)” value in test [1] is 24 % WT; in test [2], 151 % WT; in test [3] it was 22.4 % WT; in test [4] it was 37.5 % WT; in [5] it was 129 % WT; in test [6], 4 % WT. For the same molecule, the “Binding Reactivity (% WT)” value was 0.9 % WT in test [7], 88.4 % WT in test [8], 6 % WT in test [9] and 93.7 % WT in [10].
